Experimental data from patent US6313088A, “8-[(2-hydroxy-4-methoxy benzoyl) amino]-octanoic acid compositions for delivering active agents” (Emisphere Technologies, Inc., priority 1997, dated 2001).

Design: species or system Rats
Details: rat, in vivo, 1 mg/kg
Procedure: Rats were administered the dosing composition by intracolonic instillation.

## interferon
  Mean peak serum interferon concentration: 79±100
